Among the data in paper PMC3607624 (Journal of molecular biology, 2011) are Kd values, retold here.

The target of one assay is F-actin (UniProt P68135 1-377). Nature of the assay: co-sedimentation.
Assay [1] concerns the target microtubules (tubulin heterodimer) (UniProt P02550 1-451). Kind of assay: co-sedimentation.

Sequence of microtubules (tubulin heterodimer) (P02550 whole entry, chain 1 of 2): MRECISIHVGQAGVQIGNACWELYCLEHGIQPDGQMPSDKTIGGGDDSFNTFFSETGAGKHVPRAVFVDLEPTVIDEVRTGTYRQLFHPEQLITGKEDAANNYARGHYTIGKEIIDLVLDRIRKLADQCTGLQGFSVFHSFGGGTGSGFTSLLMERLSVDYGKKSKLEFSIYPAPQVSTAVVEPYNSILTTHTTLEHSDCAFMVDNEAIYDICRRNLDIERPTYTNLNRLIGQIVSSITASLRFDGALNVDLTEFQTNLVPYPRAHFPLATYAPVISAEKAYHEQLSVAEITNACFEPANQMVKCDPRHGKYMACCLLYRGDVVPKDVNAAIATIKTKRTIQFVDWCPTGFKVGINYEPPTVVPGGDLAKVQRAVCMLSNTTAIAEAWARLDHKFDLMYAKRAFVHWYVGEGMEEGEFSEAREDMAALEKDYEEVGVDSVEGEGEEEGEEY
Sequence of microtubules (tubulin heterodimer) (P02554 whole entry, chain 2 of 2, further chain): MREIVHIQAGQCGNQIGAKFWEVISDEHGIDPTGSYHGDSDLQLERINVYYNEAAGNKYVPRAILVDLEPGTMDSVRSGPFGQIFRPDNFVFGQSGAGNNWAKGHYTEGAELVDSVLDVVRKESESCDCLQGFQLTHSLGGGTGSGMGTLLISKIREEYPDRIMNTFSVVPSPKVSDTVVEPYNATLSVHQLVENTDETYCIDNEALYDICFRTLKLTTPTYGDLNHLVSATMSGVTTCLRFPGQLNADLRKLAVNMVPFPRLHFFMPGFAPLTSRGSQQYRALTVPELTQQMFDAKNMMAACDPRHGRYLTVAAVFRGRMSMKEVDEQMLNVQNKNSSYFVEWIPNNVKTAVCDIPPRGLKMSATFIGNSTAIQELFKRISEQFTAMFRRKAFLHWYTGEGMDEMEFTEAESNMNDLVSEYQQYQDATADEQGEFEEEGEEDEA

B1: Dictyostelium myosin 7 N-terminal MyTH4/FERM domain (MF1) (domain or fragment, Dictyostelium discoideum, UniProt Q9U1M8 1085-1620, looked up)
chain: SATATGNNTPNSSSASASQSTNQVNPQPTVSVVELPQILNDEEISLYSFYDYANKNFNIEKLKQKDDIFSYQKSHIKSSLLVHSDAEQTKVAVEIFSKVLHYMNSNPLVSKKDPADFYSPVKFILTKGLAIESLRDEIYCQLIKQSTSNPIQDLNIRVWELIHFTCSTFPPTRKLIKYFAAYLKTTIQQSDVSKSVKDSAQASYFILQRFTLNGARKQVPSVTELESIKENRPIFVRITATDGSLKGLHIDSATTCQESSNDLSQRSRMRVNSKENGFTIIESFNGIERDIAPTDKLCDVLSKVENLQATLSSKIQVNFKFVFKKKLFFDNITNNVPTTSINVENEFYYHQLFNDLFNSNYCKDQDYQISIGSLKLQFESSDYTDEIRAWLPGNGRGKYFTTDIEKNRFDDFINKYKSHKGLSPEDAKKQMVQLLEKHPLANCSLVVCEHQSESLPYPKNFVLALNVNGINIYDPATSKMLESVKYSNQSQQNLKSDDKSVSIILENKSTLQAFTGDVQKLVSLIKEYSLYLRNNA
Turning to B1, the Kd with F-actin was found to be 13.7 ± 2.6 µM; in assay [1] it was 1.7 ± 0.5 µM.

In general, Kd refers to the equilibrium constant for the complex coming apart. The low end stands for tighter binding, the high end for weaker binding.
